Assay results as given in publication PMC5481204.

Target: full length T216A Mos1 transposase (Drosophila mauritiana)
Assay: crystal structure; Mos1 strand transfer complex (STC): T216A Mos1 transposase and strand transfer product DNA at 50 uM each in 25 mM PIPES-NaOH pH 7.5, 250 mM NaCl, 20 mM MgCl2, 1 mM DTT; sitting drop, 30% (v/v) MPD, 0.1 M sodium cacodylate pH 6.5, 0.2 M magnesium acetate; 3.3 Å; one STC in the asymmetric unit

“full length T216A Mos1 transposase (enzyme)” was tested, and the stoichiometry N was 2.
